Residue numbers refer to the chain shown, from its start.

A word on the Kd: it is the concentration at which binding is half-saturated. What is called koff is a measure of how fast the partners let go of each other. Higher therefore signals a short-lived complex. As a reminder, the kon is a measure of how fast the partners come together. The low end stands for slower complex formation, the high end for faster complex formation.

Assay [1] has as its target T1, SARS-CoV-2 RBD (WT) (SARS-CoV-2 Wuhan-Hu-1 (wildtype), UniProt P0DTC2). Briefly: BLI. To be noted: both partners purified.
Another assay addresses Pangolin CoV GD1 RBD (Pangolin coronavirus Guangdong, isolate …, strain). Briefly: BLI. To be noted: both partners purified.
Assay [2] has as its target T1, SARS-CoV-2 RBD (WT). The assay is described as follows: BLI. To be noted: both partners purified. The source holds these as a separate data set.
The target of assay [3] is Bat CoV RaTG13 RBD (Bat coronavirus RaTG13, UniProt A0ABF7PLN6, strain). Briefly: BLI. To be noted: both partners purified.
The target of another assay is SARS-CoV-1 RBD (SARS-CoV-1, strain , UniProt P59594). Briefly: BLI. To be noted: both partners purified.
For assay [4], the target named is T2, wildtype SARS-CoV-2 spike receptor binding domain (RBD), residues 319-541 (SARS-CoV-2, wildtype (ancestral), UniProt P0DTC2). The assay is described as follows: BLI. To be noted: both partners purified.
The target in assay [5] is T2, wildtype SARS-CoV-2 spike receptor …. Briefly: cell-based or functional assay.
Assay [6] deals with Bat CoV RaTG13 RBD (Bat coronavirus RaTG13, UniProt A0ABF7PLN6). The assay is described as follows: BLI. To be noted: both partners purified.

B1: R1-26 (antibody, V domains shown)
VH: EVQLVESGGGLVQPGGSLRLSCAASGFTFSSYWMSWVRQAPGKGLEWVANIKQDGSEKYYVDSVKGRFTISRDNAKNSLYLQMNSLRAEDTAVYYCARGQLGPWVGVDYWGQGTLVTVSS
VL: NFMLTQPHSVSESPGKTVTISCTGSSGSIASNYVQWYQQRPGSAPTTVIYEDNQRPSGVPDRFSGSIDSSSNSASLTISGLKTEDEADYYCQSYDSSNWVFGGGTQLTVL
For B1, in the assay with SARS-CoV-2 RBD (WT) [1], binding was characterised by a dissociation constant (Kd) of 3.84 nM, the dissociation rate constant (koff) was found to be 0.00177 s⁻¹ and the kon is 460000 M⁻¹ s⁻¹.

B2: H16 (antibody, V domains shown)
VH: QLQLQESGPGLVKPSETLSLTCTVSGGSISSSSYYWGWIRQPPGKGLEWIGSIYYSGSTYYNPSLKSRVTISVDTSKNQFSLKLSSVTAADTAVYYCARREWLRGPFDYWGQGTLVTVSS
VL: B1 VL with G24R, A44S, W99V, Q106K
notes: human IgG1
In the assay with Pangolin CoV GD1 RBD, B2 had a dissociation constant Kd of 737 nM, a koff of 0.0254 s⁻¹ and an association rate constant (kon) of 34400 M⁻¹ s⁻¹. In the assay with SARS-CoV-2 RBD (WT) [2], this molecule showed an equilibrium dissociation constant (Kd) of 97.9 nM, a koff of 0.0498 s⁻¹ and an on-rate constant (kon) of 509000 M⁻¹ s⁻¹. In addition, in the assay with Bat CoV RaTG13 RBD [3], the binding result is “no binding (tested: 200 nM (highest of the series))”.

B3: H5 (antibody, V domains shown)
VH: QVQLVESGGGLVKPGGSLRLSCAASGFTFSDYYMSWIRQAPGKGLEWVSYISSSGSTIYYADSVKGRFTISRDNAKNSLYLQMNSLRAEDTAVYYCARAKWLRGHFDYWGQGTLVTVSS
VL: B1 VL with G24R, A44S, W99V, Q106K
notes: human IgG1
With B3, in the assay with SARS-CoV-2 RBD (WT) [2], the Kd was found to be 1500 nM, the koff was determined as 0.195 s⁻¹ and the kon turned out to be 129000 M⁻¹ s⁻¹. In addition, the binding result in the assay with Bat CoV RaTG13 RBD [3] was “no binding (tested: 200 nM (highest of the series))”.

B4: H18 (antibody, V domains shown)
VH: QVQLQESGPGLVKPSETLSLTCTVSGGSVSSGGYFWSWIRQPPGKGLEWIGCIYYSGSTNYNPSLKSRVTISVDTSKDQFSLKLSSVTAADTAVYYCARQLWLRGRFDYWGQGTLVTVSS
VL: B1 VL with G24R, A44S, W99V, Q106K
notes: human IgG1
On to B4, for which, in the assay with SARS-CoV-1 RBD, the equilibrium dissociation constant (Kd) is 231 nM, the koff worked out at 0.00283 s⁻¹ and the kon was determined as 12300 M⁻¹ s⁻¹. Further, in the assay with Pangolin CoV GD1 RBD, the equilibrium dissociation constant (Kd) came out at 134 nM, the koff worked out at 0.00624 s⁻¹ and the kon is 46500 M⁻¹ s⁻¹. For the same molecule, in the assay with Bat CoV RaTG13 RBD [3], the Kd was found to be 332 nM, the off-rate (koff) came out at 0.00612 s⁻¹ and the kon is 18400 M⁻¹ s⁻¹.

B5: H14 (antibody, V domains shown)
VH: QVQLQESGPGLVKPSQTLSLTCTVSGGSISSGGYYWSWIRQHPGKGLEWIGYIYYSGSTYYNPSLKSLVTISVDTSKNQFSLKLSSVTAADTAVYYCARKGWLRGAFDIWGQGTMVTVSS
VL: B1 VL with G24R, A44S, W99V, Q106K
notes: human IgG1
For the molecule B5, the values for the Kd in the assay with Pangolin CoV GD1 RBD, with SARS-CoV-2 RBD (WT) [2] and in the assay with Bat CoV RaTG13 RBD [3] were 451 nM, 34 nM and 302 nM, respectively. In addition, the figures for the koff with Pangolin CoV GD1 RBD, with SARS-CoV-2 RBD (WT) [2] and with Bat CoV RaTG13 RBD [3] were 0.0205 s⁻¹, 0.0182 s⁻¹ and 0.0151 s⁻¹, respectively. In addition, the kon is 45500 M⁻¹ s⁻¹ in the assay with Pangolin CoV GD1 RBD, 536000 M⁻¹ s⁻¹ with SARS-CoV-2 RBD (WT) [2] and 49900 M⁻¹ s⁻¹ in the assay with Bat CoV RaTG13 RBD [3].

B6: R1-26 (IgG) (antibody, V domains shown)
VH: B1 VH
VL: B1 VL
Molecule B6 gave a Kd in assay [4] of 3.8 nM. The “pseudovirus neutralization IC50 (pseudovirus displaying WT SARS-CoV-2 S-protein)” value in assay [5] was 2.7 nM.

B7: H4 (antibody, V domains shown)
VH: EVQLVESGGGLVQPGGSLRLSCAASGFTFSSYWMSWVRQAPGKGLEWVANIKQDGSEKYYVDSVKGRFTISRDNAKNSLYLQMNSLRAEDTAVYYCASQLWLRGAFDIWGQGTMVTVSS
VL: B1 VL with G24R, A44S, W99V, Q106K
For the molecule B7, the figures for the dissociation constant (Kd) with Pangolin CoV GD1 RBD, with SARS-CoV-2 RBD (WT) [2] and in the assay with Bat CoV RaTG13 RBD [3] were 355 nM, 29.9 nM and 503 nM, respectively. Also, the koff in the assay with Pangolin CoV GD1 RBD came out at 0.0102 s⁻¹; with SARS-CoV-2 RBD (WT) [2] it was 0.0105 s⁻¹; with Bat CoV RaTG13 RBD [3] it was 0.0134 s⁻¹. The kon in the assay with Pangolin CoV GD1 RBD was found to be 28800 M⁻¹ s⁻¹; with SARS-CoV-2 RBD (WT) [2], 351000 M⁻¹ s⁻¹; with Bat CoV RaTG13 RBD [3], 26700 M⁻¹ s⁻¹.

B8: H18 (recombinant mAb, IgG) (antibody, V domains shown)
VH: B4 VH
VL: B1 VL with G24R, A44S, W99V, Q106K
On to B8, for which, in the assay with Bat CoV RaTG13 RBD [6], the binding result is listed as “binds”.

The values are drawn from paper PMC11366018 (Nature Communications, 2024).
